Columns and labels:
AncSZ = assay: phosphorylation enrichment, bacterial display (enrichment ratio); higher = better substrate or ligand; peptides without Tyr show the background
EPHB1 = EPHB1 (UniProt P54762); assay: as above
EPHB2 = EPHB2 (UniProt P29323); assay: as above
FGFR1 = FGFR1 (UniProt P11362); assay: as above
FGFR3 = FGFR3 (UniProt P22607); assay: as above
Fer (mouse) = assay: as above
Fes = Fes (UniProt P07332); assay: as above
Fyn = Fyn (UniProt P06241); assay: as above
Hck = Hck (UniProt P08631); assay: as above
Hck, sequence (P08631 whole entry, looked up): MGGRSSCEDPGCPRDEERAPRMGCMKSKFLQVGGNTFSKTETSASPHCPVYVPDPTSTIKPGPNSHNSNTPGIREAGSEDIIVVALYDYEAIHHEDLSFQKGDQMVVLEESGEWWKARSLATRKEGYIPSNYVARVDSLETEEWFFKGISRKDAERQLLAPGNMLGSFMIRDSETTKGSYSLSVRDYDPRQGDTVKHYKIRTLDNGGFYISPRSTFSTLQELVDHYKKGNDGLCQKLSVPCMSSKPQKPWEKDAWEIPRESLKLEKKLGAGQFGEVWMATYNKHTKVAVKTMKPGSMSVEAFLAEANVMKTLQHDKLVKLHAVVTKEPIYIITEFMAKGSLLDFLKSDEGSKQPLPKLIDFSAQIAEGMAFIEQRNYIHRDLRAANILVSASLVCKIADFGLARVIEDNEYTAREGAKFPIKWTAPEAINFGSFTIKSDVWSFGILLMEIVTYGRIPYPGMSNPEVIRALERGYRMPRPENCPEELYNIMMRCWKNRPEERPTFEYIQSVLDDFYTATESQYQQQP

Jak2 = Jak2 (UniProt O60674); assay: as above
MERTK = MERTK (UniProt Q12866); assay: as above
MERTK, sequence (Q12866 whole entry, looked up): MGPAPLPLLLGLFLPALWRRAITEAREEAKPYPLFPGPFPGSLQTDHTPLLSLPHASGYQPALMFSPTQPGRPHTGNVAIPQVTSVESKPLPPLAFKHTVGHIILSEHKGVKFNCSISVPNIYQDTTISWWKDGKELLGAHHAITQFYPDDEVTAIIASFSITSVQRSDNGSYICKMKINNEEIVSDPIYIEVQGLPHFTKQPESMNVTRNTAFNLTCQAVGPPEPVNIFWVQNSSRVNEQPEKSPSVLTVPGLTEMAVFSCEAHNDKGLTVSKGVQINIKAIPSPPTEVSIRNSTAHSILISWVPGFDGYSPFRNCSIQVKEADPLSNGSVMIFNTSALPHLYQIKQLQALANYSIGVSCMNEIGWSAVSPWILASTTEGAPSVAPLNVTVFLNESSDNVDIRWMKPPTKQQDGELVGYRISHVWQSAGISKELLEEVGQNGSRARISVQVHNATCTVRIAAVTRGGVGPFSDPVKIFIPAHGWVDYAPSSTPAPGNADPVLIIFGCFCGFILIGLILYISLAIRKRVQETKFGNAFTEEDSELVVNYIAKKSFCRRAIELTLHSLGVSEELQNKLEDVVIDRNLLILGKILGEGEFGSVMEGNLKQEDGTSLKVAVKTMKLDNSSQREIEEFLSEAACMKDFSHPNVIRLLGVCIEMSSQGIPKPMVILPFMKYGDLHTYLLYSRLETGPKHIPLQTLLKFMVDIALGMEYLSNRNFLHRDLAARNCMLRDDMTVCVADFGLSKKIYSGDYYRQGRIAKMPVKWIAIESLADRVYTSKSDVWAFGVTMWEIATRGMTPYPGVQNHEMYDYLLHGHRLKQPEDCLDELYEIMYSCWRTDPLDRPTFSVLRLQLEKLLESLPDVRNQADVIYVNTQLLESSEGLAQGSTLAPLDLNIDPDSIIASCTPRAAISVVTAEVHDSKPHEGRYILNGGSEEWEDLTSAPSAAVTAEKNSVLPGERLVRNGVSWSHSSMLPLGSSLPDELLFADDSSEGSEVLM

c-Abl (mouse) = assay: as above
c-Src = assay: as above
Grb2 SH2 = Grb2 SH2 (UniProt P62993); assay: SH2 binding enrichment of the phosphorylated peptide, bacterial display (enrichment ratio); higher = better substrate or ligand; peptides without Tyr show the background
SHP2-C SH2 = assay: as above
c-Src SH2 = assay: as above
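For SH2 binding enrichment of the phosphorylated peptide, bacterial display in this document: peptide library displayed on the E. coli surface as eCPX fusions, selected cells deep-sequenced, score is each peptide's frequency after selection divided by its frequency in the input.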
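For phosphorylation enrichment, bacterial display in this document: 11-residue human phosphosite peptides and single-mutation variants displayed on the E. coli surface, counted by deep sequencing, each peptide's frequency after selection divided by its frequency in the unselected input library; frequency after pTyr selection over input frequency; kinase dosed for 20-30% of maximal phosphorylation in three min.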

Fes, sequence (P07332 whole entry, looked up): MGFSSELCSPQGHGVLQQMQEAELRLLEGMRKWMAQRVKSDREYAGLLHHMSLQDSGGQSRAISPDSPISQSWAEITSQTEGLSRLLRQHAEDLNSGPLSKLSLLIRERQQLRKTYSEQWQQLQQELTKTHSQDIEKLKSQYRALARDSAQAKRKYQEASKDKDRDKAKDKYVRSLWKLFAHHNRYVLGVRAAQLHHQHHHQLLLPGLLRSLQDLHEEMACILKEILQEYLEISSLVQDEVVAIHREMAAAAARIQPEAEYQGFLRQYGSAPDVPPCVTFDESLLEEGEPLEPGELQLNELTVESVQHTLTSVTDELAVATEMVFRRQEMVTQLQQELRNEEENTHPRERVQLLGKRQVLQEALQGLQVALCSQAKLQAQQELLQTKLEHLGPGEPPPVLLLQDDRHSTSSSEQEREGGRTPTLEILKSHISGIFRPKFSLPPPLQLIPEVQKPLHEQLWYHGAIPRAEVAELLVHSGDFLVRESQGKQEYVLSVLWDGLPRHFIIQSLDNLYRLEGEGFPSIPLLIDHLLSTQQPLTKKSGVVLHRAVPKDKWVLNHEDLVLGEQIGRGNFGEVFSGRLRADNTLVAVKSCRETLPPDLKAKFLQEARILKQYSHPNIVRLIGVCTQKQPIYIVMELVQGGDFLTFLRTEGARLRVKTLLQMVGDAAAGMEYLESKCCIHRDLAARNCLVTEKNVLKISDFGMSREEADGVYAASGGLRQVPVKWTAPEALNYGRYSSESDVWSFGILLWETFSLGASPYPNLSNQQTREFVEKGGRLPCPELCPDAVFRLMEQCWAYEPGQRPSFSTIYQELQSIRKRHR
EPHB1, sequence (P54762 whole entry, looked up): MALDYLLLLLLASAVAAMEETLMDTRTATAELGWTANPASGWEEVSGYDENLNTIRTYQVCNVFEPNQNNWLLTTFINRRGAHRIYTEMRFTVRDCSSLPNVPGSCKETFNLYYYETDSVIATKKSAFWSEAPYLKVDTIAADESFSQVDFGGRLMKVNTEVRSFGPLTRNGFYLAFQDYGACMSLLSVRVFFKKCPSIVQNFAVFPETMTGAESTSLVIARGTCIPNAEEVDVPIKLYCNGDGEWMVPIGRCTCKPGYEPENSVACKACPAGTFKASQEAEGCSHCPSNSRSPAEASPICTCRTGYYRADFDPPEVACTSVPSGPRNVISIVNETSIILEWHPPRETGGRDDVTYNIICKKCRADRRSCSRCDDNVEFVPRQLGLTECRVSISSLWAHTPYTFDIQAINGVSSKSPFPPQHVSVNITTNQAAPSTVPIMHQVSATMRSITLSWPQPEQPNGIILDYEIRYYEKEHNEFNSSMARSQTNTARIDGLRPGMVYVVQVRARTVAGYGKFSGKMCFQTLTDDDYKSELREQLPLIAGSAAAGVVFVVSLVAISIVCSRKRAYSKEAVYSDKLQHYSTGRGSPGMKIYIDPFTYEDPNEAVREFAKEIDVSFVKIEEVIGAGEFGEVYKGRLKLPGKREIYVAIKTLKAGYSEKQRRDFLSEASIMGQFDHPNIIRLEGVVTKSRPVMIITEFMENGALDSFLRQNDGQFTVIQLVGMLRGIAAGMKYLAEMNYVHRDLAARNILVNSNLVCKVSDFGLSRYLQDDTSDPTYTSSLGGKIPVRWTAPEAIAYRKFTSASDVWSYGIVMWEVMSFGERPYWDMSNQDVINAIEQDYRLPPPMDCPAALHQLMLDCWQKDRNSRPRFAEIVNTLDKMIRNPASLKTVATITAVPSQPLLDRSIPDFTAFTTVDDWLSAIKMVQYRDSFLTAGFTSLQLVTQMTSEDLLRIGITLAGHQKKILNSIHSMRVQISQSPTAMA
FGFR3, sequence (P22607 whole entry, looked up): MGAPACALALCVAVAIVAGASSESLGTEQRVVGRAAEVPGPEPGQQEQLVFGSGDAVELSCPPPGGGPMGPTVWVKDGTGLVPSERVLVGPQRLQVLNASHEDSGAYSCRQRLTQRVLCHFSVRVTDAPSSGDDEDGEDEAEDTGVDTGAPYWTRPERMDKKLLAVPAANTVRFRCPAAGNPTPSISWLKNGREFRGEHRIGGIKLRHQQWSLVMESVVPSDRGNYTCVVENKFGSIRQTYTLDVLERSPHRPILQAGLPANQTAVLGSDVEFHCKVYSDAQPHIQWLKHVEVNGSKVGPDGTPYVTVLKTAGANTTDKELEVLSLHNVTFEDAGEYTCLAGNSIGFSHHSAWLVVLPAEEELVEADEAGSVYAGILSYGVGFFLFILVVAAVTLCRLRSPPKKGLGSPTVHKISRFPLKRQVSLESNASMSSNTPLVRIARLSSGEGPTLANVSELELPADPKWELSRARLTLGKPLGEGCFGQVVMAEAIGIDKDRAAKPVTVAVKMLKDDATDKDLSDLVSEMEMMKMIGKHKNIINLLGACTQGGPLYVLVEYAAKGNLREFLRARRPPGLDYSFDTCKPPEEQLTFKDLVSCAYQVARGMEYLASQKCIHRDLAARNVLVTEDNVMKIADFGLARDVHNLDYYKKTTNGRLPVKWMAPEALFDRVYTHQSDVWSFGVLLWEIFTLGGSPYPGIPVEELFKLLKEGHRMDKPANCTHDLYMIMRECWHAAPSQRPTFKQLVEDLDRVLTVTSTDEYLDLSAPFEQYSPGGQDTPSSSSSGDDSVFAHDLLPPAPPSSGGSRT
FGFR1, sequence (P11362 whole entry, looked up): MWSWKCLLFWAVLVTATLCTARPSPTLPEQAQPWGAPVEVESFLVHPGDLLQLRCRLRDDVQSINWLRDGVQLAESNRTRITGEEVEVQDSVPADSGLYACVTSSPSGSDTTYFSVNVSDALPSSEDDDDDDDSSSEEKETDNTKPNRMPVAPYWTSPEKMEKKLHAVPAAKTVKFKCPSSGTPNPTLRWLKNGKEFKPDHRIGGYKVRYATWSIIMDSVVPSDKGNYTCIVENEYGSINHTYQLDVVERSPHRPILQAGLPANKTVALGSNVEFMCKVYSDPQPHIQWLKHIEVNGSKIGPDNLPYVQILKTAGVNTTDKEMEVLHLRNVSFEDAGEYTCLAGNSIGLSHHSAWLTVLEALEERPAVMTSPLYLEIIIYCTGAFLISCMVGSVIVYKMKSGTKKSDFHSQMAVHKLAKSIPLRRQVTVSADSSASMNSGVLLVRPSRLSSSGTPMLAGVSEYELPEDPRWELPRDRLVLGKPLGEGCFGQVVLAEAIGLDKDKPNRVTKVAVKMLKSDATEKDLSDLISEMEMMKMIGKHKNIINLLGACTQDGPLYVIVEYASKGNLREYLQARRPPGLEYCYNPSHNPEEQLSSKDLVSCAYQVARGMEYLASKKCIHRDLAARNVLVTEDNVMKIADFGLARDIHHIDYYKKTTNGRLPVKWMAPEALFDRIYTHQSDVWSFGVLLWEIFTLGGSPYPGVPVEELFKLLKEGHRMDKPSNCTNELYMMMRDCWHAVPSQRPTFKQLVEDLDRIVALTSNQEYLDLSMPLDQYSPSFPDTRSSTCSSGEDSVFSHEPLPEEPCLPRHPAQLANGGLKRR

Sequence | SH2 binding enrichment (Grb2 SH2) | SH2 binding enrichment (SHP2-C SH2) | SH2 binding enrichment (c-Src SH2) | phosphorylation enrichment (AncSZ) | phosphorylation enrichment (EPHB1) | phosphorylation enrichment (EPHB2) | phosphorylation enrichment (FGFR1) | phosphorylation enrichment (FGFR3) | phosphorylation enrichment (Fer (mouse)) | phosphorylation enrichment (Fes) | phosphorylation enrichment (Fyn) | phosphorylation enrichment (Hck) | phosphorylation enrichment (Jak2) | phosphorylation enrichment (MERTK) | phosphorylation enrichment (c-Abl (mouse)) | phosphorylation enrichment (c-Src)
STTIHYNFMCN [TP53_Y234_C229S_YF] | 0.788 | 0.902 | 0.64 | 1 | 0.628 | 0.605 | 0.523 | 0.797 | 0.494 | 1.19 | 0.493 | 0.504 | 0.998 | 0.5 | 0.753 | 0.463
ATHSRYRLNDY [CLDN14_Y233_G232R] | 0.744 | 0.563 | 0.682 | 0.562 | 0.484 | 0.371 | 0.387 | 0.468 | 0.37 | 0.735 | 0.442 | 0.505 | 0.406 | 0.459 | 0.476 | 0.417
TVEDHDFEGGI [TKT_Y563_Y563D_YF] | 0.737 | 0.515 | 0.422 | 1.06 | 0.692 | 0.543 | 0.578 | 0.873 | 0.525 | 1.14 | 0.561 | 0.538 | 1.05 | 0.452 | 0.765 | 0.472
RICRRYCQVLN [IQCF1_Y144_R141C] | 0.537 | 0.76 | 0.329 | 1.03 | 0.676 | 0.624 | 0.857 | 0.66 | 0.654 | 1.18 | 0.748 | 0.7 | 0.817 | 0.758 | 0.701 | 0.738
SVTWTYSPALN [TP53_Y126_C124W] | 0.567 | 0.492 | 0.319 | 1.31 | 0.569 | 0.786 | 0.461 | 0.862 | 0.532 | 1.11 | 0.387 | 0.467 | 0.986 | 0.289 | 0.698 | 0.347
SIKDKYVTAVY [KCNH2_Y611_L615V] | 0.808 | 0.664 | 0.48 | 0.565 | 0.446 | 0.423 | 0.498 | 0.638 | 0.431 | 0.705 | 0.545 | 0.552 | 0.585 | 0.443 | 0.441 | 0.49
AHAGGYGAEAL [HBA1_Y25_E24G] | 0.905 | 0.546 | 0.433 | 0.63 | 0.436 | 0.482 | 0.421 | 0.489 | 0.398 | 0.665 | 0.433 | 0.454 | 0.559 | 0.438 | 0.599 | 0.385
ATARPYRPFII [LRP5_Y1528_YF] | 1.11 | 0.625 | 0.861 | 0.465 | 0.356 | 0.469 | 0.402 | 0.566 | 0.406 | 0.61 | 0.359 | 0.405 | 0.589 | 0.469 | 1.05 | 0.389
EQKKNYNAMKK [SCN5A_Y1495_Y1494N] | 0.895 | 0.973 | 0.597 | 0.847 | 0.427 | 0.561 | 0.643 | 0.826 | 0.538 | 1.07 | 0.394 | 0.489 | 1.01 | 0.44 | 1.1 | 0.524
EIEFLYNENTV [IARS1_Y680] | 0.682 | 0.619 | 0.615 | 1.35 | 0.641 | 0.584 | 0.645 | 0.724 | 0.632 | 1.26 | 0.479 | 0.622 | 1.26 | 0.515 | 0.927 | 0.557
KLASTYREAAT [DEAF1_Y483_H479L] | 0.787 | 0.508 | 0.418 | 0.353 | 0.343 | 0.337 | 0.352 | 0.351 | 0.267 | 0.494 | 0.371 | 0.318 | 0.309 | 0.344 | 0.432 | 0.273
LHRAHYDLCHT [AHSG_Y314_R317C] | 1.13 | 0.935 | 2.25 | 0.814 | 0.572 | 0.542 | 0.513 | 0.648 | 0.516 | 1.12 | 0.401 | 0.47 | 0.88 | 0.435 | 0.777 | 0.495
TIMTDYNPNFC [ALK_Y1092_YF] | 0.999 | 0.674 | 0.633 | 0.858 | 0.498 | 0.491 | 0.533 | 0.549 | 0.373 | 0.917 | 0.499 | 0.47 | 0.795 | 0.395 | 0.783 | 0.545
HHTDECEYDEL [TGM1_Y134_Y134C] | 1.21 | 0.764 | 0.516 | 1.8 | 0.835 | 0.772 | 0.504 | 1.03 | 0.729 | 1.75 | 0.869 | 0.667 | 1.33 | 0.641 | 0.906 | 0.894
GVLKEYGVKVL [CPS1_Y529] | 0.863 | 0.688 | 0.408 | 0.52 | 0.369 | 0.322 | 0.384 | 0.569 | 0.362 | 0.642 | 0.378 | 0.431 | 0.391 | 0.488 | 0.334 | 0.424

Second part, led by results:

SH2 binding enrichment (Grb2 SH2) | SH2 binding enrichment (SHP2-C SH2) | SH2 binding enrichment (c-Src SH2) | Sequence | phosphorylation enrichment (AncSZ) | phosphorylation enrichment (EPHB1) | phosphorylation enrichment (EPHB2) | phosphorylation enrichment (FGFR1) | phosphorylation enrichment (FGFR3) | phosphorylation enrichment (Fer (mouse)) | phosphorylation enrichment (Fes) | phosphorylation enrichment (Fyn) | phosphorylation enrichment (Hck) | phosphorylation enrichment (Jak2) | phosphorylation enrichment (MERTK) | phosphorylation enrichment (c-Abl (mouse)) | phosphorylation enrichment (c-Src)
0.843 | 0.556 | 0.835 | RQNQEYEILMD [KRT39_Y379_L383M] | 1.53 | 1.79 | 1.58 | 0.698 | 0.847 | 0.705 | 1.45 | 0.815 | 0.695 | 1.66 | 0.503 | 0.994 | 0.861
1.47 | 0.996 | 0.759 | CEHRGFLFLAI [TEK_Y897_Y897F_YF] | 0.949 | 0.392 | 0.513 | 0.484 | 0.651 | 0.515 | 1.16 | 0.403 | 0.434 | 1.06 | 0.442 | 0.907 | 0.506
0.972 | 1.06 | 0.396 | NMSRIYSTTKV [ACE_Y151_A154T] | 0.441 | 0.296 | 0.302 | 0.341 | 0.36 | 0.319 | 0.443 | 0.425 | 0.382 | 0.421 | 0.366 | 0.583 | 0.431
0.947 | 1.39 | 0.669 | EEALYYLTRVE [SET_Y119_H118Y] | 2.55 | 1.85 | 1.91 | 9.54 | 9.52 | 5.28 | 1.43 | 4.26 | 4.07 | 2.69 | 6.68 | 1.53 | 4.59
1.02 | 0.794 | 0.401 | ADEDIYGVLPA [LYNtide_2014] | 1.49 | 0.705 | 1.36 | 0.606 | 0.982 | 2.99 | 1.36 | 4.82 | 3.51 | 1.28 | 2.76 | 2.19 | 2.97
0.604 | 0.551 | 0.822 | LTTPTFGDLNH [TUBB_Y222_Y222F] | 0.729 | 0.407 | 0.384 | 0.554 | 0.577 | 1.05 | 0.871 | 0.378 | 0.308 | 0.609 | 0.442 | 0.612 | 0.577
0.97 | 0.727 | 0.823 | KIPGRYYETGS [PAX2_Y72_L69P] | 0.56 | 0.445 | 0.424 | 0.503 | 0.539 | 0.588 | 0.713 | 0.496 | 0.388 | 0.637 | 0.573 | 0.689 | 0.476
0.811 | 0.6 | 0.543 | ISDEAYVMAGV [ERBB2_Y772_L768S] | 1.15 | 0.495 | 0.53 | 0.494 | 0.736 | 0.564 | 0.81 | 0.603 | 0.541 | 0.656 | 0.436 | 0.62 | 0.504
1.1 | 0.885 | 0.821 | GEDEPYAEPYA [APBA1_Y183_S184A] | 1.59 | 0.685 | 0.694 | 0.608 | 0.799 | 0.525 | 1.53 | 0.609 | 0.544 | 1.33 | 0.636 | 0.915 | 0.639
0.707 | 0.429 | 0.572 | TVLGEYALPKG [CYP24A1_Y407] | 1.15 | 0.58 | 0.542 | 0.45 | 0.562 | 0.404 | 0.621 | 0.491 | 0.565 | 0.592 | 0.585 | 6.83 | 0.39
0.86 | 0.782 | 0.694 | EFHRLYEEFTR [PIK3R1_Y467_D464H_YF] | 0.97 | 5.22 | 2.58 | 0.573 | 0.579 | 3.87 | 0.941 | 7.21 | 7.49 | 0.714 | 4.42 | 0.709 | 5.59
0.862 | 0.659 | 0.868 | PFSEPYADFGG [APBA1_Y187_YF] | 1 | 0.543 | 0.488 | 1 | 0.957 | 0.719 | 1.29 | 1.15 | 0.786 | 0.991 | 0.76 | 1.38 | 3.39
0.751 | 0.585 | 0.364 | IRTGIYHGGEP [PIK3CA_Y361_V356I] | 0.522 | 0.392 | 0.428 | 0.385 | 0.447 | 0.399 | 0.501 | 0.551 | 0.572 | 0.653 | 0.507 | 0.516 | 0.521
0.918 | 0.504 | 0.629 | RNLDTYQKRLR [PLA2G2D_Y126] | 0.617 | 0.831 | 0.279 | 0.373 | 0.484 | 0.307 | 0.61 | 0.452 | 0.55 | 0.661 | 0.474 | 0.762 | 0.463
1.1 | 0.823 | 0.796 | LRLSSYSTTIR [CYP7B1_Y365] | 1.41 | 0.674 | 0.708 | 0.655 | 0.756 | 0.524 | 1.1 | 0.687 | 0.615 | 0.936 | 0.686 | 0.676 | 0.658
0.765 | 0.467 | 0.521 | QRIFQYIRSRF [DYRK1B_Y273_Q275R_YF] | 1.07 | 0.817 | 0.795 | 0.75 | 0.695 | 0.827 | 1.26 | 0.837 | 0.83 | 1.24 | 0.975 | 0.988 | 1.36
0.815 | 0.757 | 0.678 | QTLTDYDTRFY [CSNK2A3_Y131_I133T] | 1.01 | 0.861 | 0.667 | 0.612 | 0.69 | 0.749 | 1.25 | 0.556 | 0.619 | 1.06 | 0.483 | 0.692 | 0.428
0.816 | 0.447 | 0.556 | GADDSYYTARS [ZAP70_Y492] | 1 | 0.488 | 0.517 | 0.551 | 0.652 | 0.482 | 1.05 | 0.594 | 0.737 | 1 | 0.43 | 0.938 | 0.742

From the supplement of paper PMC10065799, “High-throughput profiling of sequence recognition by tyrosine kinases and SH2 domains using bacterial peptide display” (eLife, 2023)
